Results: patent US20060264378A1 (BIOKINE THERAPEUTICS, published 2006)
Numbered stars: 1 amine (or outer) side, 2 acyl side, 3 side chain; on linkers, the order of the positions; unused ones are H or OH. Bridge positions count the residues as written; N and C are the ends. Square brackets hold non-standard residues; d marks the D form. Ends that are not written are not given here. * marks the point of attachment. deaminoTMG = tetramethylguanyl on 5-aminopentanoyl (deaminoTMG-APA, formula II); guanyl = guanyl, N-terminal group, N=C(N)*; 2Nal = N[C@@H](Cc1ccc2ccccc2c1)C(=O)O; Glutaryl = O=C(CCCC(=O)[*:2])[*:1]; Benzoyl(4-F) = O=C(c1ccc(F)cc1)*; dCit = NC(=O)NCCC[C@@H](N)C(=O)O; Cit = NC(=O)NCCC[C@H](N)C(=O)O; Suc = O=C(CCC(=O)[*:2])[*:1]; Ahx = NCCCCCC(=O)O; Ava = NCCCCC(=O)O

How the values were obtained:
CXCR4 receptor [1] = target: T1, CXCR4 receptor (human, UniProt P61073 1-352); assay: displacement of 125I-CXCL12 from Jurkat cells, filter binding
T1 construct: whole, on cells; Endogenous receptor on human cells
Protocol: 50 μL of Jurkat human T-cell leukemia cells (6×10⁶ cells/mL) suspended in buffer (Dulbecco's PBS solution (pH 7.0) containing 0.5% BSA, 20 mM HEPES), 25 μL of test compounds (Table 2: each compound being synthesized in the form of acetate salt) diluted by buffer and 25 μL of 200 p M 125I-CXCL12 solution were respectively dispensed to each well of the plate, and were subjected to fixation reaction for 1 hour at room temperature. After reaction, suction was made toward the reaction solution by 96 well GF/C filter plate, and each well's radioactivity was measured by top count. As the radioactivity index of 100% when the test compound was not added, and 0% when 100 nM of non-radioisotope-labeled CXCL12 was added, the inhibitory activity of each test compound was measured.

[2] = target: CXCR4 on mouse splenocytes (mouse, UniProt P70658 1-359); assay: cell-based or functional assay
CXCR4 receptor [3] = target: T1, CXCR4 receptor; assay: cell-based or functional assay

T1 sequence (P61073 whole entry): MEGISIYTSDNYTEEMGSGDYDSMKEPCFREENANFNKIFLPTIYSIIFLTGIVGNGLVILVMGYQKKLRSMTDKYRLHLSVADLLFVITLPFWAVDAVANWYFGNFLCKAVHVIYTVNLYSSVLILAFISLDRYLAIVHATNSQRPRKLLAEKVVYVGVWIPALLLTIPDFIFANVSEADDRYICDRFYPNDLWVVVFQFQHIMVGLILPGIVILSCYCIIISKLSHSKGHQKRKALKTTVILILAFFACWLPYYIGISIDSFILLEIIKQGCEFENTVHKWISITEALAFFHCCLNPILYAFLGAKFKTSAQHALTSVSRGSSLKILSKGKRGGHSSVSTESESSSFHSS
CXCR4 on mouse splenocytes, sequence (P70658 whole entry): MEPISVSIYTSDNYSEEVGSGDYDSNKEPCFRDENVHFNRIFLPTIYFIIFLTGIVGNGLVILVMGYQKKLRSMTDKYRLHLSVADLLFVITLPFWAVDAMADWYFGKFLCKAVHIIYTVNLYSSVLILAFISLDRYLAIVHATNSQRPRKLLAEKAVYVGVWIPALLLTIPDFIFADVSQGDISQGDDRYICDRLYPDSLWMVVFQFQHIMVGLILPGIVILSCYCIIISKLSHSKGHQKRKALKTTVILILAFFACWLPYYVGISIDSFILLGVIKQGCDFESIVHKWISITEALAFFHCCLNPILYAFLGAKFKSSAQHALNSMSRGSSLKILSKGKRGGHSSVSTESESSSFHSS

Row | IC50 (CXCR4 receptor [1]) | IC50 of inhibition of SDF-1-induced migration of mouse splenocytes (Transwell) [2] | IC50 of inhibition of SDF-1α-induced migration of Jurkat cells (Transwell) (CXCR4 receptor [3]) | Binder
1 | 3.9 nM |  |  | {2‑fluorobenzoyl}-RR[2Nal]CY[Cit]K[dE]PYR[Cit]CR-NH2 (disulfide 4-13; also: acetate salt) [TF6]
2 | 8 nM |  |  | XRRXCYXKXPYRXCRX (N-terminal tetramethylguanyl; Nal (L-3-(2-naphthyl)alanine) at 3; Cit (L-citrulline) at 6 and 12; D-Cit (D-citrulline) at 8; disulfide Cys4-Cys13; C-terminal amide (-NH2)) [TF18]
3 | 5.4 nM |  |  | H-RR[2Nal]CY[dE]K[dCit]PYR[Cit]CR-NH2 (disulfide 4-13 (inferred); also: acetate salt) [TE14012]
4 | 250 nM |  |  | guanyl-R[2Nal]CY[Cit]K[dE]PYR[Cit]CR-NH2 (disulfide 3-12; also: acetate salt) [TF9]
5 | 95 nM |  |  | H-RR[2Nal]CY[Cit]K[dE]PYR[Cit]CR-NH2 (disulfide 4-13; also: reduced CH2-NH bond between residues 1 and 2, acetate salt) [TF15]
6 | 2.7 nM |  |  | RRXCYXKXPYRXCR (X at 3 = Nal (L-3-(2-naphthyl)alanine); X at 6 and 12 = Cit (L-citrulline); X at 8 = D-Cit (D-citrulline); disulfide Cys4-Cys13; free N-terminus (H-); C-terminal amide (-NH2), Tested as acetate salt) [TC14012]
7 | 4.6 nM |  |  | {deaminoTMG-Ava}-R[2Nal]CY[Cit]K[dE]PYR[Cit]CR-NH2 (disulfide 3-12; also: acetate salt) [TF12]
8 | 11 nM |  |  | Ac-RR[2Nal]CY[Cit]K[dE]PYR[Cit]CR-NH2 (disulfide 4-13; also: acetate salt) [TF1]
9 | 21 nM |  |  | {nelfinaviryl-Suc}-R[2Nal]CY[Cit]K[dE]PYR[Cit]CR-NH2 (disulfide 3-12; also: acetate salt) [TF13]
10 | 2.6 nM |  |  | H-RR[2Nal]CY[Cit]K[dK]PYR[Cit]CR-NH2 (disulfide 4-13; also: acetate salt, Tested as acetate salt) [TN14003]
11 | 49 nM |  |  | {AZT-Glutaryl}-R[2Nal]CY[Cit]K[dE]PYR[Cit]CR-NH2 (disulfide 3-12; also: acetate salt) [TF14]
12 | 0.99 nM | 0.54 nM | 0.65 nM | {Benzoyl(4-F)}-RR[2Nal]CY[Cit]K[dK]PYR[Cit]CR-NH2 (disulfide 4-13; also: acetate salt) [4F-benzoyl-TN14003]
13 | 79 nM |  |  | H-R[2Nal]CY[Cit]K[dE]PYR[Cit]CR-NH2 (disulfide 3-12; also: acetate salt) [TF17]
14 | 3.5 nM |  |  | [Ahx]RR[2Nal]CYRK[dK]PYR[Cit]CR-OH (disulfide 5-14; also: acetate salt) [TF20]
15 | 9.6 nM |  |  | tetramethylguanyl-RR[2Nal]CY[Cit]K[dE]PYR[Cit]CR-NH2 (disulfide 4-13; also: acetate salt) [TF3]
16 | 4.5 nM |  |  | XRRXCYXKXPYRXCRX (N-terminal 6-aminohexanoyl (ACA); Nal (L-3-(2-naphthyl)alanine) at 3; Cit (L-citrulline) at 6 and 12; D-Cit (D-citrulline) at 8; disulfide Cys4-Cys13; C-terminal amide (-NH2)) [TF19]
17 | 680 nM |  |  | H-RE[2Nal]CYRK[dK]PYR[Cit]CR-OH (disulfide 4-13; also: acetate salt) [TE14002]
18 | 2.8 nM |  |  | {Benzoyl(4-F)}-RR[2Nal]CY[Cit]K[dE]PYR[Cit]CR-NH2 (disulfide 4-13; also: acetate salt) [TF5]
19 | 8.2 nM |  |  | {2‑desamino‑arginyl}-R[2Nal]CY[Cit]K[dE]PYR[Cit]CR-NH2 (disulfide 3-12; also: acetate salt) [TF8]
20 | 2.9 nM |  |  | H-RR[2Nal]CY[Cit]K[dE]PYR[Cit]CR-NH2 (disulfide 4-13; also: acetate salt) [TE14011]
21 | 5 nM |  |  | H-RR[2Nal]CYEK[dK]PYR[Cit]CR-OH (disulfide 4-13 (inferred); not fully specified; printed as H-Arg-Arg-Nal-Cys-Tyr-Glu-Lys-DLys-Pro-Tyr-Arg-Cit-Cys-Arg-OH; also: acetate salt) [TE14003]
22 | 3.3 nM |  |  | guanyl-RR[2Nal]CY[Cit]K[dE]PYR[Cit]CR-NH2 (disulfide 4-13; also: acetate salt) [TF2]
23 | 2.2 nM |  |  | H-RR[2Nal]CYRK[dE]PYR[Cit]CR-OH (disulfide 4-13; also: acetate salt) [TE14005]
24 | 48 nM |  |  | Suc-R[2Nal]CY[Cit]K[dE]PYR[Cit]CR-NH2 (disulfide 3-12; also: acetate salt) [TF10]
25 | 9.3 nM |  |  | H-RR[2Nal]CY[dE]K[dE]PYR[Cit]CR-NH2 (disulfide 4-13; also: acetate salt) [TE14013]
26 | 630 nM |  |  | Glutaryl-R[2Nal]CY[Cit]K[dE]PYR[Cit]CR-NH2 (disulfide 3-12; also: acetate salt) [TF11]
27 | 6.8 nM |  |  | H-RR[2Nal]CYRE[dK]PYR[Cit]CR-OH (disulfide 4-13 (inferred); not fully specified; printed as H-Arg-Arg-Nal-Cys-Tyr-Arg-Glu-DLys-Pro-Tyr-Arg-Cit-Cys-Arg-OH; also: acetate salt) [TE14004]
28 | 9.9 nM |  |  | tetramethylguanyl-R[2Nal]CY[Cit]K[dE]PYR[Cit]CR-NH2 (disulfide 3-12; also: acetate salt) [TF4]
29 | 5.6 nM |  |  | H-RR[2Nal]CYRK[dK]PYE[Cit]CR-OH (disulfide 4-13 (inferred); also: acetate salt) [TE14006]
30 | 5.7 nM |  |  | {5‑aminopentanoyl}-R[2Nal]CY[Cit]K[dE]PYR[Cit]CR-NH2 (disulfide 3-12; also: acetate salt) [TF7]
